Experimental data reported in the supplement of paper PMC9170038.

What follows are sequences tested on MS2 coat protein (assay: apparent KD of MS2 coat protein; higher = weaker reporter binding). Details: Eterna round: R107; input ligand: arginine 13.2 mM.
In short: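 SNAP-549-labelled MS2 coat protein was titrated onto designed RNA switches that had been transcribed on-chip from Illumina sequencing clusters. Amounts doubled from 0.7 or 1.5 nM to 3 µM in 100 mM Tris-HCl pH 7.5, 80 mM KCl, 4 mM MgCl2, with constant ligand or without. Apparent KD is the median per design of normalised cluster binding-curve fits.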

Sequence	apparent KD of MS2 coat protein
ACGGAUCGGAAACGAUCCGCGGCUAGGGUGCGAGGACCGGUACGGCCGCCACUCGGGUAACAUGAGGAUCACCCAUGUCCGAUUU [ETA NP+V+V2 #13 Same Structure]	36.4 nM
GGUUACUCUACGGCCGCCACUGAUAAAUAAUAAACCUGUACAUAAACAUGAGGAUCACCCAUGUACAGGACCGGGUAGUGUAACC [Tryptophan B 7]	30.5 nM
GCUAGGUCAUCGGCCGCCACUAACGAUGGCUCCAACAUGAGGAUCACCCAUGUGCCACAUGCGCAUAGGACCGGGAUGACCUAGC [SSTB NP+V+V2 #3]	11.3 nM
ACGAACGAUAGUGAUACCAGACGUACAUGAGGAUCACCCAUGUUUUGGGUAAGGUUAAUAGUCCCUUGGCAGCACUUUAAGUUCG [JR_ExcTheophyB_Sub007]	44.6 nM
UACCGGUGACUCGAUACCAGUCCUCUAAAAUACAUGAGGAUCACCCAUGUAACCUUCCCAGACCCUUGGCAGCGACACAUGGAUA [theeternabot_sameState_MS2_Theo_B_49]	97.7 nM
GACAUGAGGAUCACCCAUGUUUUCUAUGAAGGAGCGUCGGAAAUGACAGGUAGGUCGCAUGGUAGGACUUGUAUCUUGUAUGUAG [EAA NP+V+V2 #10]	13.4 nM
GCUUGGGUGGCCCAGCCCUGGCAGGGCGAUACCAGCACGGUAACGUGCCCUUGGCAGCGCACAUGAGGAUCACCCAUGUGGUGCG [#1 Exclusion - Theophylline A Attempt #27 (HarryS)]	52.8 nM
ACGAACUGUAGUGAUACCAGACACACAUGAGGAUCACCCAUGUUGUUAGCAUGGUGAAUAGUCCCUUGGCAGCACAGUUAGUUCG [#12 Exclusion-TheophyllineB]	71.5 nM
GCUUGGGUGGCCCAGCCCUGGCAGGGCGAUACCAGCCCGGUAACGGGCCCUUGGCAGCGCACAUGAGGAUCACCCAUGUGGUGCG [#1 Exclusion - Theophylline A Attempt #28 (HarryS)]	22.4 nM
UCGGACAUGAGGAUCACCCAUGUAAAUCCUCGAGGACCGGUACGGCCGCCACUCGAACGAGUGGCACGCGAGUGCGCACUCGCGU [aEa]	24.1 nM
AAUAACAUGAGGAUCACCCAUGUAAAAGAUACCAGAUGCAUGAUGAUCCCUUGGCAGCUUAAAACGCGAUUGAUUACAAUCGCGA [Mat - Same State Theophlline A - Mod of Eli - D12]	41 nM
UGGGUACCGACGGCCGCCACUGAAUAUAGACAUGAGGAUCACCCAUGUAGAGAUCCUAGAAUAAACAGGACCGGGUCUGGUGCUA [Exclusion Tryptophane B GF5]	92.4 nM
UCGCUCUGGGUGGAAUCCGGAGAUGUGGAAGGAGCGCUCGAAAGGGCAGGUAGGUCGCCAACGGACAUGAGGAUCACCCAUGUAC [#23 Same State - Arginine A]	29.4 nM
UGACACAUGAGGAUCACCCAUGUCGCGAAACGAGGACCGGUACGGCCGCCACUCGCACAAACUCCUCUCCAGCACCAGCUUUUAG [theeternabot_sameState_MS2_Trp_A_3]	15.4 nM
GCCAUCGGCGGAAGCCGAUGGUAUACGGAAGGAGCGCACGAAAGUGCAGGUAGGUCGCUGAACAUGAGGAUCACCCAUGUAAUAA [#28 Same State - Arginine A]	17.6 nM
GUAUACAUGAGGAUCACCCAUGUGCCAGAAGGAGCGCUGGAAACGGCAGGUAGGUCGCUGGUAGGUCCUCUAUCUAGACGUUCGG [#17 Exclusion - Arginine A]	52.6 nM
UUGGGUUUGUGAAGGAGCGGGAAAUAUAUAUAUAUAAUCCUAACAUGAGGAUCACCCAUGUCCCAGGUAGGUCGCGCGGGUUUGG [12.N]	46.4 nM

Sequence	apparent KD of MS2 coat protein
AAAAUAAAUAAAACACGUAACAUGAAGGAUACCAGACAGGAAACUGUCCCUUGGCAGCCUCUACAUGAGGAUCACCCAUGUCGUG [Mat - Same State Theophlline A - Mod of Eli - D17]	112 nM
GCAUCCUAGUCGGCCGCCACUGCAGUAGCACCUGCUACAUGGAAACAUGAGGAUCACCCAUGUAGCAGGACCGGGACUAGGAUGC [(Trp1)-(TM)''-(TM)'-(Ms2)-(Trp2)_Design8]	44.3 nM
ACGCUGAUUGAUUACAAUCAGCGAAAAGAUACCAGUGGGUAAUCCCACCCUUGGCAGCUUAAACAAGAGGAUCACCCUUGUGGUA [TheoAS 16 #MS2Right #BothOrNeither #AlternativeMS2]	102 nM
GGCACCAGGAGAAGGAGCGUGAAGACAUGAGGAUCACCCAUGUAGAGGCCCGUACCGGGUUCGCAGGUAGGUCGCUCCUGGUGCC [#1 Same State - Arginine B Attempt #14 (HarryS)]	19.2 nM
UAGGACAUGAGGAUCACCCAUGUUGUACGGCGAGGACCGGUACGGCCGCCACUCGAGGCGUAAGUAGUAAAGAAUCUGAUUCAAU [theeternabot_sameState_MS2_Trp_A_4]	13.7 nM
AAUAAGCAGCUGCAUCAUGGGUGAGCAGAUACCAGCUAGGAAACUAGCCCUUGGCAGCUGCAACAUGAGGAUCACCCAUGUAAUA [(T)'-(M)'-(T1)-(T2)-(M1)-(M2)_Design5]	47.1 nM
CACGAAAGAUCGGCCGCCACUAUUUGAUGUGUUCUUUCACAUGAGGAUCACCCAUGUUCUUAUUUUAGGACCGGGAUUGAGCGUG [ETB #2]	72.7 nM
ACGAUACGACAUGAGGAUCACCCAUGUGAUACCAGCGUGGAAACACGCCCUUGGCAGCACAAAUACUCCAGAAACGUAUCGAAAA [MAT - Exclusion Theophlline A - Mod of Eli - D7]	93.3 nM
AACGUCUUGUCGGCCGCCACUGUAUGGUGCGUGACAUGAAACAUGAGGAUCACCCAUGUAGCAUGCAGGACCGGGACAGUGCCAA [Beriaran]	7.49 nM
AUUAUCAUGGUCAUAUAUAUAUCUUCAGAUACCAGACUAUAUUAAGUCCCUUGGCAGCUGUUACAUGAGGAUCACCCAUGUUAUA [JR_ExcTheophyA_Sub014]	53.9 nM
AAUCAUGAAAACAUGACAUGAGGAUCACUCCGAGGACCGGUACGGCCGCCACUCGCGAGGAGGCACAUGAGGAUCACCCAUGUUA [SS Tryp A #1]	31.6 nM
GGAUAGAUAGGAGAUACCAGACACAUUAACAUGAGGAUCACCCAUGUGUCUGCACUAAGUGUCCCUUGGCAGCUCGGAGAUCUGA [Same State - Theophylline B]	34.2 nM
CACGAAAGAUCGGCCGCCACUAUUUGAUGUGUUCUUUCACAUGAGGAUCACCCAUGUUCUUUCUUUAGGACCGGGAUUGAGCGUG [ETB #1]	88.8 nM
AAUUAUCAGUCGGCCGCCACUGACACAUGAGGAUCACCCAUGUAACUUGGGUUAAAUUUAAUAAACAGGACCGGGACAAAGGCUA [JR_ExcTryptoB_Sub010]	94.4 nM
CUUAUAGUAACUGAUACCAGUGUACUGACAUGAGGAUCACCCAUGUUGGGUUUUGUUGUACACCCUUGGCAGCAGAAUCUAUAAG [AstrosExyTheB#10]	49.2 nM
AGUAUCAGUGGAAGGAGCGUCGCGAAUGUCACAUGAGGAUCACCCAUGUCGUCUUGAGCGCGACAGGUAGGUCGCCACGGUAGGC [SS-ArgB4]	12.1 nM
ACAUGAGGAUCACCCAUGUAACCUAGGGAAGGAGCGGUGUAAGAGCCAGGUAGGUCGCCCACAUGUGGAUCACCCAUGGUGAGGG [#24 Same State - Arginine A]	22.7 nM
